According to the DeepSol protein solubility set:

Assay: soluble on expression in E. coli; label from the status in PepcDB or PDB records

Sequence | soluble on expression in E. coli
MKLPGPDHPISITANPNGVRISADGKVIAETRRALTLQEASYPPVQYIPREDADMRLLEKTARVTHCPYKGDASYFSIVAGGEPQANAVWSYENPFPAMAEIAGYLAFYPQKVQTEEFKP | not soluble
MTDLIHRPRRLRKSAALRAMFEETTLSLNDLVLPIFVEEELDDYKAIDAMPGVMRIPEKQLAREIERIANAGIRSVMTFGISHHTDDTGSDTWKEDGLVARMSRICKQTVPEMIVMSDTCFCEYTSHGHCGVLCEHGVDNDATLANLGKQAVIAAAAGADFIAPSAAMDGQVQAIRQALDAAGFTDTAIMSYSTKFASSFYGPFREAAGTALKGDRKTYQMNPMNRREAIRESLLDEAQGADCLMVKPAGAYLDVLREIRERTELPLGAYQVSGEYAMIKFAAMAGAIDEEKVVLESLGSIKRAGADLIFSYFALDLAEKNILR | not soluble
MLKLASSLRTGLISRSIRTLAPTVNPAEQQQVQAVLPDKLYSSVEIEYRGHDKAVLKSYTSFLQQVCQHLEIPQGRLEVLPYIRWVQPALRSKFVHKKYKLHYETRTHISKLEILNVTGSTASTFLEYIQRNIPEGVGMRVGFTELQPLPLTIQKN | not soluble
MAHHHHHHMQMRWIVDAEERYRRSLTWKPAVGTIYDHKIVMKRGGSSHVQYRFDVDGKEYLGDRFRSGGVHKEEMVSNPALLGAGTQLVVYYNPSDPSESAIKLQTDRAAESAFLVGITISLLVAYRSVRCETILPNMFYSFLAVNRRLGGITGLREARTHSKQKMKYGKGTGAI | not soluble
MHEYPITKRIIEISQEHANKHNAKEVKQINLVVGDYSGYVASSIELYFGIIAEGTVCENAKLNIKRVKPMLKCNECESLFVRKPFSFECPYCGGQGSPTEIGHEFYIESIEI | soluble
MSLNAPSNAPWLSHYDEGIPSSLAPYPRVTLPDILREAARKHPEDPALLFLGNTISYGELERESNAFAAALHASEVRKGNRVAVLLPNSPQMIIAEFGIWKAGGIAVMLNPLWTEHELERAIDECEAEIAVVLAPFYEKINHLRSRTSLKTVVITDLHDYFPAAMRNASPANGAVATMLQSSDLRMPAMIESYSGSQTPAVEVSPKDPALFIFSGGTTGKPKCAIGRHEASVMNGMQVDAWFRPVLGSDRVPVMLNLPLHHVYPQVAIIGYGFVTRSPLVLIPDPRDFELLIKTIKQYKVGLLPGIPTLFNALAAHPLLKEAPGSLDSLKLIISAAAPLHNKTRRRFKELTGATIIDAYGLTEAMVSPVCQPLNGIRKNGSVGLPVPDVEMRIVDADTGIEVLPSMEIGEIVIRSPQLMTGYWKNPEETAEVLRDGWLYTGDLGYIDDDGYLYIVDRKKDVIKPSGFQVWPSEVEEVIAMHPAVLETGVAGVPDDYQSEAVKAWVVLHKGHSLDAEQLKNWCRQTLAPYKVPKHIEFCEQLPKSALGKVLRQALVEQHLTSEGHHHHHH | soluble
MCLAIPGKVVEIKGNVGIVDFGGIRREVRLDLLSDVKVGDYVIVHTGFAIEKLDERRAREILEAWEEVFSVIGGE | not soluble
MSLDYDLLIKNGQTVNGMPVEIAIKEKKIAAVAATISGSAKETIHLEPGTYVSAGWIDDHVHCFEKMALYYDYPDEIGVKKGVTTVIDAGTTGAENIHEFYDLAQQAKTNVFGLVNISKWGIVAQDELADLSKVQASLVKKAIQELPDFVVGIKARMSRTVIGDNGITPLELAKQIQQENQEIPLMVHIGSAPPHLDEILALMEKGDVLTHCFNGKENGILDQATDKIKDFAWQAYNKGVVFDIGHGTDSFNFHVAETALREGMKAASISTDIYIRNRENGPVYDLATTMEKLRVVGYDWPEIIEKVTKAPAENFHLTQKGTLEIGKDADLTIFTIQAEEKTLTDSNGLTRVAKEQIRPIKTIIGGQIYDNEGHHHHHH | soluble
PDLSTWNLTIPQGRPAITISTSQLQRDYRSDYFQRTADGIRFWVPVNGSHTRNSEFPRSELRETLSSGRPYNWRYARADNWLEATLRIEAVPSTRRMIIGQIHSDGSNSGQAAPLVKLLYQLRLDQGRVQALVRERPDDGGTRAYTLMDGIPLGQPFSYRIGVSRSGLLSVSVNGSALEQQLDPQWAYQGLYFKAGLYLQDNRGPSSEGGRATFSELRVSHQ | soluble
MSLSEVLDLDGELNLLVWNIYKQNRANWSTQLTELSRDQQLLLLQEANMTPAFKEWIHQLGWDGTQARAFEAFGETAGVINLAKVMPTMACAYTQLEPWLRLPKSAIYARYRLSDGQELVVVNLHAVNFTYGTQEYQQQLIALLDELRDFTGPVIVAGDFNSWSEARMALLSTQLASVGLQEVRFSPDNRTTFINGLPLDHVFYRGLQLEKAEAPISDASDHNPLLVRFRLLNEGHHHHHH | soluble
MILVTGATGVVGRQVAHTLARSGRVRLLVRDPARLTVEGPGVEVATGAYEDHASLLRALKGVEAAFLVTVDPGGQEDGRFLRAAVAADVRHVVKLSSYAAGEDDADDLITRWQRKCEETLRSSGLDWTLLRPRAFMSNTLSWADSIRREGTVRALYPGSENACVDPRDIAEVAVTALTSPGHEGRVYPLTGPEAVSAEQQTRHLAAVLGRPLVCRELTPQQAAARWARRYPPKVVHALVLSAQRQLLGRKTTTDPTFARVTGHPPRSYRQWATDHRNAFA | not soluble
MSLLIRELETNDLDNFPEIDDSFIVNARLMLSLSKVNRRIEYTVEDVPSYEKSYLQNDNEELVYNEYINKPNQIIYIALLHNQIIGFIVLKKNWNNYAYIEDITVDKKYRTLGVGKRLIAQAKQWAKEGNMPGIMLETQNNNVAACKFYEKCGFVIGGFDFLVYKGLNMTSDEVAIYWYLHFDS | not soluble
MNRLHGQQVKIGYGDNTIINKLDVEIPDGKVTSIIGPNGCGKSTLLKALSRLLAVKEGEVFLDGENIHTQSTKEIAKKIAILPQSPEVADGLTVGELVSYGRFPHQKGFGRLTAEDKKEIDWAMEVTGTDTFRHRSINDLSGGQRQRVWIAMALAQRTDIIFLDEPTTYLDICHQLEILELVQKLNQEQGCTIVMVLHDINQAIRFSDHLIAMKEGDIIATGSTEDVLTQEILEKVFNIDVVLSKDPKTGKPLLVTYDLCRRAYS | not soluble
MGSDKIHHHHHHMQSKSDIQRLLTIMERLRDPQTGCPWDKAQSYQTIVPFTLEEAFEVADTIERGALDELPGELGDLLFQVIFYCQLGKEQGRFDFDQVVEKICTKLTERHPHVFGEMTQASSESVRETWESIKAKERKGRSLHSVLDDIPRSLPALTRAAKVQRRVATVGFDWNDLGPVVAKIHEEIDEVMVEVAAQDRDKMEDELGDLLFAVVNLARHLKLDPEQALRRATNKFEHRFRGVEALAAQSGKAMQEHSLTELDAYWEQVKRNDPLKG | not soluble
MESKSVDTRSIYRELGATLSYNMRLGNGMEIEPWLKAAVRKEFVDDNRVKVNSDGNFVNDLSGRRGIYQAGIKASFSSTLSGHLGVGYSRGAGVESPWNAVVGVNWSF | not soluble
MVEAIIFDMDGVLFDTEKYYYDRRASFLGQKGISIDHLPPSFFIGGNTKQVWENILRDEYDKWDVSTLQEEYNTYKQNNPLPYKELIFPDVLKVLNEVKSQGLNIGLASSSVKADIFRALEENRLQAFFDIVLSGEEFKESKPNPEIYLTALKQLNVQASRALIIEDSEKGIAAGVAADVEVWAIRDNLFGMDQSAAKGLLDSLTDVLDLIK | not soluble
MGSDKIHHHHHHMLNSQSKLDQEVIEGIHRIRENGVLPFIATGRGHFELDEIMSLTGISGAVAMNGQYIVLDGETIYKEEIPTSSVEKLLEAASPHSEALSFYDSQGYWVSELTDLAKTAYAYTHMPMPQADARRYLSQEVNMLLVLTNQLSQVDYYKERVPELNFFMNSPSSIDVTNSTTNKGTGINHVKEVLNFTGQTFAFGDGRNDLDLFKAADHRTAMGNAVPELKELADFISTENTNHGIINAFNHWGIM | not soluble
MGSDKIHHHHHHMTAAAATTAGATGGASRRPADEAIAADARALSEQLKAMRDRLFAPTAMKTLRSFTSGEAAKLIGVSDGYLRQLSLAGEGPQPDTGAGGRRSYSLSDINALRRHLAEQAIAKGNGAKARGYLKWRDAARSEHLQVISVTNFKGGSGKTTSSVHLAQYLALTGHRVLAVDLDPQASLSALFGYQPELDLTGNDTLYGAIRYDAEARPLKDIIRKTYFDGLDLVPGNLELQEFEHTTPQALSARQSGADAGPLFFARVQAALASVADDYDVVVIDCPPQLGYLTLSALCASTSVIVTVHPQMLDVASMNQFLYMTSDLLSVVRDAGGELNFDFLRYLVTRFEPNDGPQAQIVGFMRSLFGDRVLTSAMVKSTAISDAGLTKQTLYEVGRENFTRATYDRAIESLNAVNGEIEALIHAAWGR | not soluble
MPRHETDCRYFANGYCSKGNTCTFTHDVATRNENICHFNLVGKCSYGRACRFLHTRPRNDELPSCSTPQTSQNQQNLQNSGQRVRPKQLPELKFNAQAAEFVPRWKMPQRGPVTSYAGAAASADHGESSSSFQSSHEQAQLMMCPYHQKSGDCNRQDMDCPFAHGNYCDMCQQWSLHPYNAELRKKHENECVANHTTEMERAFLLQKTEQKTCGICMENIFEKNLRFGILNGCQHCFCLDCIRQWRSKDQENVELATKTVRSCPECRQHSDYVIPSLFWVESGQEKDLLIEMYKENTKRKICKYYSNERSRGACPFGNKCFYKHQLPDGSIDPGEAPSSRRRPRLVDFLFDDNSDSDEETFRRFQEEHEEEQEELLRFVAETLPEADEESELFRQITEVLRHYQISGHRRGFQ | not soluble
ASSSYYEQYHSLNEIYSWIEVMTERYPDMVEKIHIGSSYEKYPLYVLKVSKKEQRAKNAMWIDCGIHAREWISPAFCLWFVGSVTYYYGKEKMHTNLLKHMDFYIMPVVNVDGYDYTWKKDRMWRKNRSLHEKNACVGTDLNRNFASKHWCGEGASSSSCSEIYCGTYPESEPEVKAVADFLRRNIKHIKAYISMHSYSQKIVFPYSYSRSRSKDHEELSLVAREAVFAMENIHRNIRYTHGSGSESLYLAPGGSDDWIYDLGIKYSFTFELRDKGKYGFLLPESYIRPTCSEALVAVAKIASHVVKNV | soluble
MHHHHHHSSGVDLGTENLYFQSMSHQVGVAGAVFDESTRKILVVQDRNKLKNMWKFPGGLSEPEEDIGDTAVREVFEETGIKSEFRSVLSIRQQHTNPGAFGKSDMYIICRLKPYSFTINFCQEECLRCEWMDLNDLAKTENTTPITSRVARLLLYGYREGFDKIDLTVEELPAVYTGLFYKLYHKELPENYKTMKGID | soluble
MKTGKELKPGTVLRIDNDPWLVQKAEFTKSGRNSAIMKTKLKNLLTGYKTETVYGADDKLDDVILDRKEATLSFINGDEYTFMDTTDYTMYELNAEDIEAVLPYIEEGMEDVCEAVFFEGRLVSVELPTTISRKVVYTENAARGDTSGKVMKPAKLANGTEISVADFIQIDEWIDIDTRDNSFKGRSKKLEHHHHHH | soluble
MGSDKIHHHHHHLFDRYEAGETAVLVHIDFSDDERREDLVELQLLVESAGARSVGVITGSRRAPDRKFFVGTGKAEELAAMVAATEAKVVIFNHALSPAQERNLERVCHCRVLDRTTLILDIFAQRARTHEGKLQVELAQLRHMSTRLIRGWTHLERQKGGIGMRGPGETQLETDRRLLRGRIKNINRRLDKVDKQREQSRRSRKRSDLATVSLVGYTNAGKSTLFNGLTSSDVYAADQLFATLDPTLRKLDLPDGAVILADTVGFIRHLPHDLVAAFKATLQETRQAELLLHIVDCADDNMQDNFDQVQDVLKEIDADEIPQLVVCNKIDLLEDFAPRIDYAEDGTPERVWLSAQKGQGFDLLLQAITELVGNIVLELTLKVPATGGHYIGQMYKLDVIEHKDYDDLGNCIVKIRLLDADWRRMIKQSQGELETFVFEASETDVIL | not soluble
